Test results reported in paper PMC4006948 (Molecular cell, 2013).

T1: recombinant Cmr2 (TTHB160), no tag (Thermus thermophilus HB8, UniProt Q53W09 1-584)
T1 sequence (looked up): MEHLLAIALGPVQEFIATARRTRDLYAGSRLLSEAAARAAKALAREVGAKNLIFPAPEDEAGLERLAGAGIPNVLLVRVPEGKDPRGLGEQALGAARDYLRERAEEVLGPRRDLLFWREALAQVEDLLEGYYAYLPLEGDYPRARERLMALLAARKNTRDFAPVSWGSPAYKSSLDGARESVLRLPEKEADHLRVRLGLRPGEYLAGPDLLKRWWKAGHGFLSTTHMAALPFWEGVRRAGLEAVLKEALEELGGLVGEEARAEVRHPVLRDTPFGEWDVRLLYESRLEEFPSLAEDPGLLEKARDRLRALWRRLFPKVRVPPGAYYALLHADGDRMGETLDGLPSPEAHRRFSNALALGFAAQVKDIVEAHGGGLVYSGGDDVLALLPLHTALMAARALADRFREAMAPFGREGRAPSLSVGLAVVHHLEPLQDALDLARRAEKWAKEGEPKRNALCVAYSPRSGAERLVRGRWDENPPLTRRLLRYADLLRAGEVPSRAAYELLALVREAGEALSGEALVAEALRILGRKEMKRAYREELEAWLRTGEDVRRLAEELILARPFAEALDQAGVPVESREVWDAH

B1: Cmr6 (TTHB165) with a (His)6 tag at its C-terminus (natural protein, Thermus thermophilus HB8, UniProt Q53W04 2-348, looked up)
chain: GRRSALEGVRLPQGKEPHRGLWLDKFLRSARREDTEAKRVLVREAAGIPEPGEYRAFFKRYRGALEALGAEIREARTLSRLVVGLGGEGVLETALTLHRAYGVPYIPGSALKGLASRYAHLYLEGEAWRRDLARFHRGEAQAGLFGTTEEQGLVVFWDALPLPGKWKLHPDILNPHHPDYYGSVKAPPADWDGPKPVPFLSATGTFLLALSPAPGVSPEEAGPWLRAAWRILAWALREEGVGAKTSSGYGRMALEEPASQGEKPLAPGPSPVLQDLLTWARALSYREVPRFLASQAEAILGLSVEEAQALRRALEERGFLRNPQDLKRWRKEHPGLEGVLAKLGLSA
B2: Cmr4 (TTHB163) (natural protein, Thermus thermophilus HB8 (endogenous), UniProt Q53W06 2-286, looked up)
chain: SHVALLFLHALSPLHAGTGQGIGAIDLPIAREKATGIPYLPGSSLKGVLRDRASAWDRDTLFAVFGPDTENASEHAGAVQVGDAKLLLLPVRSLYGVFALVASPYLLERFRREALMAGLQPPGVPGLQDPTRVLLAPGSRLLGDGEKVYLEDLDLKAQGEEGVAAWERWLAERTEAPVLGRLAVVHDDLMGFLLETATEVVARIRLDDETKTVAKGALWYEESLPAESLLYALVRADRSFRKGKELPPEGVWALFRGVLEEGGGVLQLGGKATVGRGLCRIVVGR
B3: Cmr5 (TTHB164) (natural protein, Thermus thermophilus HB8 (endogenous), UniProt Q53W05 1-114, looked up)
chain: MRTRSQVWAQKAYEKVREAAKGEGRGEYRDMALKLPVLVRQAGLSQALAFVDSRGKEAHKALGNDLAQVLGYRDLRELAEAAREAELLQYLRLTREVLAAAEWFKRFAQALIEE
B4: Cmr2 (TTHB160) (natural protein, Thermus thermophilus HB8 (endogenous), UniProt Q53W09 1-584, looked up)
chain: T1 sequence (looked up)
B5: recombinant Cmr3 (TTHB161), no tag (natural protein, Thermus thermophilus HB8, UniProt Q53W08 1-361, looked up)
chain: MLIEPRDPLIVRDGRPFTNSPGARAKSLPFPLPQTLAGAYRTRRALLEGLPLPERAEEVLRWGLRGPLLAEEGEGGWRLLAPRPLDALKLGEALYPLRPLELPQGAGTNLPEGLSPVGLPSPALKEKPAPLPAFWYWESFLEWLLQDAPAGFAPRGHEGPVPETRTHVALDPAAQTAREGFLFQTSGLEFVRGRRRLALVLWPEGPEPEGVFPLGGERRLAFWQKGGPGVPPLPEEVVAGLLRHRAARLVFLTPAFLGEAYLPKGRAFQGASVVAAVVGRPLAVSGWNLKEGKPKPSRRAVPAGSVYFVRLPEAWGEGEVRDWAEKVWFQNLSEEEQDRRDGFGLAALGLWDGKLRRWEEA
B6: Cmr3 (TTHB161) (natural protein, Thermus thermophilus HB8 (endogenous), UniProt Q53W08 1-361, looked up)
chain: B5 chain
B7: Cmr1 (TTHB162) (natural protein, Thermus thermophilus HB8 (endogenous), UniProt Q53W07 1-395, looked up)
chain: MRRAFREAFSPRRKEEGGVLVRRDGARVLAWERTYTLLTPLFGGGVEPREADPVSVVRATAVRGHLRFWWRAVRGWRAGGSLERLWELESALFGSAGEGGASPLSVEVEVLREGEKVGIAQYGRAVQWYLGFPLRGDKEWAPVKEGVAFRLRLRFPEKVGELNFWEELEAALWAWETFGGIGARTRRGFGALLPQGAGVPGEEEIREKLRQYGQKAGWPEGVPHLTPKSFVRVVPLSWRELAERYQAFRQARPGGDPRSPGRSYWPEPDGVRRLTGRHAPHHLPRHPVHKFPRAHFGLPIIFHFKDRGDPPDTTLRLKEADRRASPLLFRPLGEGQKPCVVAVLEGARFPGEKLVLEGKDGRTWDVDPWLTPEEAQKIPVLGGEVDPVLAFVKSL

Assays:
Cmr2 (TTHB160) [1] = biological target: B4; experiment: affinity purification with mass spectrometry
Cmr3 (TTHB161) = biological target: B6; experiment: affinity purification with mass spectrometry
Cmr1 (TTHB162) = biological target: B7; experiment: affinity purification with mass spectrometry
[2] = biological target: B1; experiment: native MS
[3] = biological target: the molecule itself; experiment: negative-stain electron microscopy, single particle reconstruction
Cmr4 (TTHB163) = biological target: B2; experiment: as above
[4] = biological target: T1, recombinant Cmr2 (TTHB160), no tag; experiment: native MS
Cmr2 (TTHB160) [5] = biological target: B4; experiment: negative-stain electron microscopy, single particle reconstruction

Binder: B1
- binding result (Cmr2 (TTHB160) [1]): binds
- binding result (Cmr3 (TTHB161)): binds
- binding result (Cmr1 (TTHB162)): binds

Binder: B2
- stoichiometry N [2]: 4 copies per Cmr6
- stoichiometry N [3]: 4

Binder: B3
- stoichiometry N [2]: 3 copies per Cmr6
- binding result (Cmr4 (TTHB163)): binds

Binder: B4
- stoichiometry N [2]: 1 copies per Cmr6

Binder: B5
- binding result [4]: binds

Binder: B6
- stoichiometry N [2]: 1 copies per Cmr6
- binding result (Cmr2 (TTHB160) [5]): binds

Binder: B7
- stoichiometry N [2]: 1 copies per Cmr6
